Data reported in patent US20210253724A1 (Hoffmann-La Roche, published 2021).
Values belong to the binder of their own block, whether it stands above or below them.

How the values were obtained:
[1] = biological target: T1, human PD-L1 on MKN45-huPD-L1 cells (human, UniProt Q9NZQ7 19-290); assay: flow cytometry on MKN45-huPD-L1 cells, goat F(ab')2 anti-human Fcγ-PE, gMFI baseline corrected
T1 construct: Full-length cDNA transfected into MKN45 cells; also called humanPD-L1-expressing MKN45 cells
Experimental: (§1) Cells were incubated for 30 min at 4° C. and then washed twice with 80 μL/well DPBS. […] Cells were washed twice with 80 μL/well DPBS and then fixed in 30 μL/well DPBS containing 1% Formaldehyde for at least 15 minutes. The same or the next day cells were resuspended in 50 μL/well FACS-buffer and acquired using MACSQuant Analyzer X (Miltenyi Biotec).

[2] = biological target: T2, human 4-1BB (CD137) on Jurkat-hu4-1BB-NFκB-luc2 reporter cells (human, UniProt Q07011 24-255); assay: flow cytometry on Jurkat-hu4-1BB-NFκB-luc2 cells
T2 construct: Reporter cell line bought from Promega; also called cell-expressed human 4-1BB
Experimental: Plates were incubated for 30 minutes at 4° C. and washed once with 200 μL 4° C. cold DPBS buffer. […] Cells were washed twice with 200 μL 4° C. DPBS buffer and then resuspended in 50 μL/well DPBS containing 1% Formaldehyde for fixation. The same or the next day cells were resuspended in 100 μL FACS-buffer and acquired using MACSQuant Analyzer X (Miltenyi Biotec).

[3] = biological target: T2, human 4-1BB (CD137) on …; assay: cell-based or functional assay
[4] = biological target: T2, human 4-1BB (CD137) on …; assay: cell-based or functional assay; set-up: AUC of NFκB-luciferase activation curve, no CEA+ cells / AUC of NFκB-luciferase activation curve, with CHO-k1-cynoCEACAM5 clone 8: unit not given beside the values
[5] = biological target: T3, cynomolgus monkey CEACAM5 on CHO-k1-cynoCEACAM5 clone 8 cells (cynomolgus monkey); assay: flow cytometry on CHO-k1-cynoCEACAM5 clone 8; set-up: unit not given beside the values
T3 construct: whole, on cells

[6] = biological target: T4, human CEACAM5 (CEA) on cells (human, UniProt P06731 35-685); assay: flow cytometry on CHO-K1-humanCEACAM5 clone 12 cells, goat F(ab')2 anti-human Fcγ-PE, median fluorescence intensity baseline corrected
T4 construct: Endogenous on MKN45 cells; full-length cDNA transfected into CHO-K1 cells; also called CEA expressed on MKN45 cells; CHO-k1-huCEACAM5 clone 11, clone 12, clone 13
T4 sequence: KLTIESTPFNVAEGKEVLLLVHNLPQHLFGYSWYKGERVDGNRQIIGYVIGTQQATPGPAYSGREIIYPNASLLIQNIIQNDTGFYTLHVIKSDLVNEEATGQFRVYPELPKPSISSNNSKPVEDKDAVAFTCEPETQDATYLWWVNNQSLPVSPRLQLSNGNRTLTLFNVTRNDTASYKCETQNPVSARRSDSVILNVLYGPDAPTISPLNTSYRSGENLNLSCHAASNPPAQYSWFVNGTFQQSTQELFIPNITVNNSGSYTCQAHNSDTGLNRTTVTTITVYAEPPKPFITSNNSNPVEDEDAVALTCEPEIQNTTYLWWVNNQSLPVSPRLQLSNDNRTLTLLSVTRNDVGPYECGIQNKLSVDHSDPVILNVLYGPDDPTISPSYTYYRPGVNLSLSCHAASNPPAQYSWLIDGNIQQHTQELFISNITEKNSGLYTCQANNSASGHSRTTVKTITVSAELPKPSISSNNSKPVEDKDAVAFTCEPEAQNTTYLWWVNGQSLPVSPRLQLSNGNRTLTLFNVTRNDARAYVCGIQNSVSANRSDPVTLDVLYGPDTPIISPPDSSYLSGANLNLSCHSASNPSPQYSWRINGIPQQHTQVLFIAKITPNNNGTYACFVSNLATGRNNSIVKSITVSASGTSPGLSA
Experimental: as §1

[7] = biological target: T4, human CEACAM5 (CEA) on cells; assay: flow cytometry on CHO-k1-humanCEACAM5 clone 11
Experimental: as §1

[8] = biological target: T3, cynomolgus monkey CEACAM5 on …; assay: flow cytometry on CHO-k1-cynoCEACAM5 clone 8
Experimental: as §1

[9] = biological target: T4, human CEACAM5 (CEA) on cells; assay: flow cytometry on CHO-k1-humanCEACAM5 clone 13
Experimental: as §1

[10] = biological target: T4, human CEACAM5 (CEA) on cells; assay: flow cytometry on CHO-k1-humanCEACAM5 clone 12
Experimental: as §1

T1 sequence (Q9NZQ7 19-290 limits assumed): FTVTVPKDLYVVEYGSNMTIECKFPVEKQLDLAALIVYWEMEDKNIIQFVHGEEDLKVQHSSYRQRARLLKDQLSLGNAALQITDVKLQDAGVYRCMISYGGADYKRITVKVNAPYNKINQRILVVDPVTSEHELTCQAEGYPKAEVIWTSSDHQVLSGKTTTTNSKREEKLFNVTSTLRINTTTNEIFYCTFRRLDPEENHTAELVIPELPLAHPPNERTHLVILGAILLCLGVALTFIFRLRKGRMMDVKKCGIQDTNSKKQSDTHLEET

- binding result [1]: no binding (tested: 100 nM)
- EC50 [2]: 0.073 nM
- EC50 of NFκB-luciferase activation curve, no CEA+ cells [3]: 0.19 nM
- EC50 of NFκB-luciferase activation curve, with CHO-k1-cynoCEACAM5 clone 8 [3]: 0.17 nM
- EC50 of NFκB-luciferase activation curve, with CHO-k1-humanCEACAM5 clone 11 [3]: 0.18 nM
- EC50 of NFκB-luciferase activation curve, with CHO-k1-humanCEACAM5 clone 12 [3]: 0.19 nM
- AUC of NFκB-luciferase activation curve, no CEA+ cells [4]: 5070
- AUC of NFκB-luciferase activation curve, with CHO-k1-cynoCEACAM5 clone 8 [4]: 4920
- AUC of NFκB-luciferase activation curve, with CHO-k1-humanCEACAM5 clone 11 [4]: 15400
- AUC of NFκB-luciferase activation curve, with CHO-k1-humanCEACAM5 clone 12 [4]: 11900
- AUC [5]: 136
- binding result [6]: no binding (tested: about 300 nM)
B1: anti-4-1BB (20H4.9) huIgG1 P329GLALA (antibody, V domains shown)
VH: QVQLQQWGAGLLKPSETLSLTCAVYGGSFSGYYWSWIRQSPEKGLEWIGEINHGGYVTYNPSLESRVTISVDTSKNQFSLKLSSVTAADTAVYYCARDYGPGNYDWYFDLWGRGTLVTVSS
VL: EIVLTQSPATLSLSPGERATLSCRASQSVSSYLAWYQQKPGQAPRLLIYDASNRATGIPARFSGSGSGTDFTLTISSLEPEDFAVYYCQQRSNWPPALTFGGGTKVEIK
notes: Standard huIgG1 P329G LALA antibody with two anti-4-1BB Fabs

- EC50 [7]: 11.4 nM
- EC50 [8]: 48.8 nM
- EC50 [9]: 12.9 nM
- EC50 of NFκB-luciferase activation curve, no CEA+ cells [3]: 0.04 nM
- EC50 of NFκB-luciferase activation curve, with CHO-k1-cynoCEACAM5 clone 8 [3]: 0.07 nM
- EC50 of NFκB-luciferase activation curve, with CHO-k1-humanCEACAM5 clone 11 [3]: 0.04 nM
- EC50 of NFκB-luciferase activation curve, with CHO-k1-humanCEACAM5 clone 12 [3]: 0.03 nM
- EC50 [10]: 13.9 nM
- AUC of NFκB-luciferase activation curve, no CEA+ cells [4]: 1320
- AUC of NFκB-luciferase activation curve, with CHO-k1-cynoCEACAM5 clone 8 [4]: 43100
- AUC of NFκB-luciferase activation curve, with CHO-k1-humanCEACAM5 clone 11 [4]: 65700
- AUC of NFκB-luciferase activation curve, with CHO-k1-humanCEACAM5 clone 12 [4]: 58900
- AUC [5]: 4850
B2: 2+1 H2H 4-1BB (20H4.9)/CEA (A5B7) P329GLALA IgG1 (bispecific antibody)
heavy 1: QVQLQQWGAGLLKPSETLSLTCAVYGGSFSGYYWSWIRQSPEKGLEWIGEINHGGYVTYNPSLESRVTISVDTSKNQFSLKLSSVTAADTAVYYCARDYGPGNYDWYFDLWGRGTLVTVSSASTKGPSVFPLAPSSKSTSGGTAALGCLVEDYFPEPVTVSWNSGALTSGVHTFPAVLQSSGLYSLSSVVTVPSSSLGTQTYICNVNHKPSNTKVDEKVEPKSCDKTHTCPPCPAPEAAGGPSVFLFPPKPKDTLMISRTPEVTCVVVDVSHEDPEVKFNWYVDGVEVHNAKTKPREEQYNSTYRVVSVLTVLHQDWLNGKEYKCKVSNKALGAPIEKTISKAKGQPREPQVCTLPPSRDELTKNQVSLSCAVKGFYPSDIAVEWESNGQPENNYKTTPPVLDSDGSFFLVSKLTVDKSRWQQGNVFSCSVMHEALHNHYTQKSLSLSP
heavy 2: not shown
light 1: not shown
light 2: EVKLVESGGGLVQPGGSLRLSCATSGFTFTDYYMNWVRQPPGKALEWLGFIGNKANGYTTEYSASVKGRFTISRDKSQSILYLQMNTLRAEDSATYYCTRDRGLRFYFDYWGQGTTLTVSSASVAAPSVFIFPPSDEQLKSGTASVVCLLNNFYPREAKVQWKVDNALQSGNSQESVTEQDSKDSTYSLSSTLTLSKADYEKHKVYACEVTHQGLSSPVTKSFNRGEC
notes: also called 2+1 H2H anti-4-1BB (20H4.9)×anti-CEA (A5B7) huIgG1 P329GLALA
